According to patent US11207340B2, “Tumor suppressor TET1 and uses thereof” (The Chinese University of Hong Kong, priority 2017, dated 2021):
Entries after “also recorded” stand apart in the source; their conditions may differ.

B1: TET1-CD: Human TET1 catalytic domain (Cys-rich and DSBH regions), N-terminal Flag tag, expressed from pcDNA3.1 plasmid; SEQ ID NO:6 (protein, listed as Homo sapiens)
chain: ELPTCSCLDRVIQKDKGPYYTHLGAGPSVAAVREIMENRYGQKGNAIRIEIVVYTGKEGKSSHGCPIAKWVLRRSSDEEKVLCLVRQRTGHHCPTAVMVVLIMVWDGIPLPMADRLYTELTENLKSYNGHPTDRRCTLNENRTCTCQGIDPETCGASFSFGCSWSMYFNGCKFGRSPSPRRFRIDPSSPLHEKNLEDNLQSLATRLAPIYKQYAPVAYQNQVEYENVARECRLGSKEGRPFSGVTACLDFCAHPHRDIHNMNNGSTVVCTLTREDNRSLGVIPQDEQLHVLPLYKLSDTDEFGSKEGMEAKIKSGAIEVLAPRRKKRTCFTQPVPRSGKKRAAMMTEVLAHKIRAVEKKPIPRIKRKNNSTTTNNSKPSSLPTLGSNTETVQPEVKSETEPHFILKSSDNTKTYSLMPSAPHPVKEASPGFSWSPKTASATPAPLKNDATASCGFSERSSTPHCTMPSGRLSGANAAAADGPGISQLGEVAPLPTLSAPVMEPLINSEPSTGVTEPLTPHQPNHQPSFLTSPQDLASSPMEEDEQHSEADEPPSDEPLSDDPLSPAEEKLPHIDEYWSDSEHIFLDANIGGVAIAPAHGSVLIECARRELHATTPVEHPNRNHPTRLSLVFYQHKNLNKPQHGFELNKIKFEAKEAKNKKMKASEQKDQAANEGPEQSSEVNELNQIPSHKALTLTHDNVVTVSPYALTHVAGPYNHWV
modifications: N-terminal Flag tag

Legend:
Format in all cases: cell-based, human
TET1 = assay: Demethylation treatment of silenced tumor cell lines: TET1 expression by semi-quantitative RT-PCR; conditions: 10 μmol/L Aza 3 days, alone or combined with HDAC inhibitor; nasopharyngeal, esophageal, colon, breast and renal tumor cell lines with methylated TET1
Text: Human tumor cell lines of multiple tissue types were used^50-55, including nasopharyngeal (NPC), esophageal squamous cell (ESCC), lung, gastric, colorectal (CRC), hepatocellular (HCC), breast, cervical, renal (RCC), bladder and prostate carcinomas, melanoma, as well as non-Hodgkin (NHL), Hodgkin (HL) and nasal natural killer (NK)/T-cell (NKTCL) lymphomas. Immortalized, non-transformed normal epithelial cell lines were used as “normal” controls. Cell lines were obtained from either American Type Culture Collection or collaborators. When needed, cell lines were treated with 10 μmol/L 5-aza-2′-deoxycytidine (Aza) (Sigma-aldrich, St Louis, Mo.) for 3 days, without or with further treatment with 100 nmol/trichostatin A (TSA) (Cayman Chemical Co., Ann Arbor, Mich.) for additional ˜16 h as previously^50,53. Normal adult and fetal tissue RNA and DNA samples were purchased commercially (Stratagene, La Jolla, Calif.; Millipore-Chemicon, Billerica, Mass.). […]
(§1) Semi-quantitative RT-PCR and quantitative real-time PCR were performed as described before^50,53, with GAPDH as a control for all the samples shown in previous publications^31,51,52. qRT-PCR was carried out according to the manufacturer's protocol (HT7900 system; applied Biosystems), with SYBR Green master mix (applied Biosystems) used.

TET1 promoter = assay: Demethylation treatment of silenced tumor cell lines: TET1 promoter methylation by MSP and BGS; conditions: for TET1 promoter demethylation (unmethylated promoter alleles) by MSP: 10 μmol/L Aza 3 days, without or with TSA ~16 h, silenced tumor cell lines
Text: Human tumor cell lines of multiple tissue types were used^50-55, including nasopharyngeal (NPC), esophageal squamous cell (ESCC), lung, gastric, colorectal (CRC), hepatocellular (HCC), breast, cervical, renal (RCC), bladder and prostate carcinomas, melanoma, as well as non-Hodgkin (NHL), Hodgkin (HL) and nasal natural killer (NK)/T-cell (NKTCL) lymphomas. Immortalized, non-transformed normal epithelial cell lines were used as “normal” controls. Cell lines were obtained from either American Type Culture Collection or collaborators. When needed, cell lines were treated with 10 μmol/L 5-aza-2′-deoxycytidine (Aza) (Sigma-aldrich, St Louis, Mo.) for 3 days, without or with further treatment with 100 nmol/trichostatin A (TSA) (Cayman Chemical Co., Ann Arbor, Mich.) for additional ˜16 h as previously^50,53. Normal adult and fetal tissue RNA and DNA samples were purchased commercially (Stratagene, La Jolla, Calif.; Millipore-Chemicon, Billerica, Mass.). DNA samples of primary carcinomas, nose swab from suspected NPC patients, as well as surgical margin normal tissues, have been described previously^31,51,52.
(§2) CpG island (CGI) analysis for TET1 promoter and exon 1 was performed using CpG island Searcher (http//ccnt.hsc.usc.edu/cpgislands2). Bisulfite modification of genomic DNA was carried out as described previously^56,57. For MSP analysis, approximately 50 ng of bisulfited DNA for each sample was amplified with methylation- or unmethylation-specific primer set, according to previously reported MSP protocol^58. Bisulfite-treated DNA was also amplified using a set of BGS primers, then cloned into pCR4-TOPO vector (Invitrogen, Carlsbad, Calif.), with 8-10 clones randomly picked and sequenced.

[1] = tested on: NPC, ESCC, gastric, colon and breast tumor cells; assay: Colony formation assay of tumor cells; conditions: ectopic expression
Protocol: (§3) Human TET1 catalytic domain (TET1-CD) cDNA and its catalytic domain mutant (TET1-CD-mut) clones (Addgene, Cambridge, Mass.) were used as templates to generate TET1 constructs with an N-terminal Flag tag, and subcloned into pcDNA3.1 vector (Invitrogen, Carlsbad, Calif.). Cells were cultured overnight in a 12-well plate and transfected with empty vector or TET1-CD, TET1-CD-mut-expressing plasmids using Lipofectamine 2000 (Invitrogen, Carlsbad, Calif.). Forty-eight hours later, transfectants were replated in triplicate and cultured for 10-15 days in complete medium containing G418. Surviving colonies were stained with crystal violet (0.5% w/v) after methanol fixation, with visible colonies (≥50 cells) counted.

NPC tumor cells (HONE1) = assay: TUNEL assay; conditions: compared with vector or TET1-CD-mut controls
Protocol: Cells cultured on coverslips were fixed with 4% paraformaldehyde, and permeabilized with 0.1% triton X-100. TUNEL (Terminal deoxynucleotidyl transferase dUTP nick end labeling) staining was performed using the In Situ Cell Death Detection Kit (Roche, Mannheim, Germany).

[2] = tested on: HOXA9, HOXA5, PCDH7, TCF4, MEIS1, SLIT2 and ZNF382; assay: TSG expression by semi-quantitative RT-PCR and qRT-PCR in TET1-CD-expressing carcinoma cells
Protocol: as §1, §3

[3] = tested on: HOXA9, SLIT2 and ZNF382 promoters; assay: TSG promoter methylation by MSP in TET1-CD-expressing tumor cells
Protocol: as §2, §3

Molecule | TET1 expression after treatment (TET1) | TET1 promoter demethylation (unmethylated promoter alleles) by MSP (TET1 promoter) | TET1 promoter demethylation (unmethylated promoter alleles) by MSP (TET1 promoter; listed as Aza) | TET1 promoter CpG sites by BGS analysis (TET1 promoter; after Aza treatment, alone or combined with HDAC inhibitor) | tumor cell clonogenicity, % of control cells ([1]; NPC, ESCC, gastric, colon and breast tumor cells, vs control cells) | suppression of tumor cell clonogenicity / growth ([1]; colony formation assays of tumor cells of multiple tissue types) | numbers of apoptotic cells (NPC tumor cells (HONE1)) | TSG expression at mRNA levels (HOXA9, HOXA5, PCDH7, TCF4, MEIS1, SLIT2, ZNF382) [2] | methylated alleles of HOXA9, SLIT2 and ZNF382 promoters [3] | unmethylated promoter alleles of HOXA9, SLIT2 and ZNF382 [3]
Nc1ncn([C@H]2C[C@H](O)[C@@H](CO)O2)c(=O)n1 [5-aza-dC, 5-aza-2′-deoxycytidine] | restoration | increased | demethylated | dramatically demethylated | – | – | – | – | – | –
B1 | – | – | – | – | 40-50% | inhibited | significantly increased; also recorded: induced | Mild upregulation; also recorded: upregulated | decreased | increased
